Assay results as given in paper PMC4923902 (Scientific Reports, 2016).
Changes are numbered by the printed parent chain. Numbers in names are those of the source. One block for each binder: values may come before it.

Experiments:
[1] = molecular target: T1, phosphorylated opsin (bovine, UniProt P02699 1-348, phosphorylated on the C-terminus by endogenous GRK1 (sites not given); no retinal (apo-protein)); assay: site-directed steady-state fluorescence; 1 uM labelled arrestin with 6 uM Ops-P in ROS membranes, 50 mM HEPES pH 8, low salt, 20 °C; details: one partner purified
T1 construct: bovine opsin (apo-protein of rhodopsin), endogenous in ROS membranes; in isolated, washed ROS disc membranes, not on whole cells; also called Ops-P; OpsP

[2] = molecular target: T1, phosphorylated opsin; assay: site-directed steady-state fluorescence; 1 uM labelled arrestin with 6 uM receptor in ROS membranes, 50 mM HEPES pH 7, low salt, 20 °C; details: one partner purified

T1 sequence (P02699 whole entry): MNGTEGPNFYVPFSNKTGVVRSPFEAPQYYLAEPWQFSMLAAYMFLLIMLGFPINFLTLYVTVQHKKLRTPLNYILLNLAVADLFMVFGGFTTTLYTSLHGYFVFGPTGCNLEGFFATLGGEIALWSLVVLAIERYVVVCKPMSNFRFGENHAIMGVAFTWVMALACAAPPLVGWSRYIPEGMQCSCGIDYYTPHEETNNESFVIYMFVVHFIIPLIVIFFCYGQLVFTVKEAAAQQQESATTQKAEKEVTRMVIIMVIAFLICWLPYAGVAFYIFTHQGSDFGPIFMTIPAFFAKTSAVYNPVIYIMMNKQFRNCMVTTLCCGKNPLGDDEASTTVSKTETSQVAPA

fluorescence increase relative to that with Meta II-P [1]: ~18%
fluorescence increase relative to that with Meta II-P [2]: ~45%
B1: arrestin I72NBD (natural protein, bovine, UniProt P08168 1-404, looked up)
chain: MKANKPAPNHVIFKKISRDKSVTIYLGKRDYIDHVERVEPVDGVVLVDPELVKGKRVYVSLTAAFRYGQEDCDVMGLSFRRDLYFSQVQVFPPVGASGATTRLQESLIKKLGANTYPFLLTFPDYLPSSVMLQPAPQDVGKSAGVDFEIKAFATHSTDVEEDKIPKKSSVRLLIRKVQHAPRDMGPQPRAEASFQFFMSDKPLRLAVSLSKEIYYHGEPIPVTVAVTNSTEKTVKKIKVLVEQVTNVVLYSSDYYIKTVAAEEAQEKVPPNSSLTKTLTLVPLLANNRERRGIALDGKIKHEDTNLASSTIIKEGIDKTVMGILVSYQIKVKLTVSGLLGELTSSEVATEVPFRLMHPQPEDPDTAKESFQDENFVFEEFARQNLKDAGEYKEEKTDQEAAMDE
modifications: NBD fluorophore (IANBD) on the cysteine at site 72
notes: recombinant bovine arrestin-1 mutant; also called arrestin-1 C63A, C128S, C143A, W194F, I72C labelled with IANBD; source: E. coli, purified

fluorescence change relative to that with Meta II-P [1]: ~38%
B2: arrestin I299B/L173W (natural protein, bovine, UniProt P08168 1-404, looked up)
chain: B1 chain with C72I, L173W, I299C
modifications: bimane fluorophore (monobromobimane) on the cysteine at site 299
notes: recombinant bovine arrestin-1 mutant; also called arrestin-1 C63A, C128S, C143A, W194F, L173W, I299C labelled with monobromobimane; source: E. coli, purified
